Data reported in paper PMC7086397.

Biological target: actin filament (UniProt P68135)
Experiment: fluorescence microscopy in a microfluidics chamber

Kd: 75 nM
Substance: fascin (from UniProt Q16658 1-493) (natural protein)
